Assay [1] has as its target T1, human Eva1 mutant with glutamic acid at position 102 substituted with alanine (human, UniProt O60487 27-150, limits assumed).
T1 construct: also called E102A
T1 chain: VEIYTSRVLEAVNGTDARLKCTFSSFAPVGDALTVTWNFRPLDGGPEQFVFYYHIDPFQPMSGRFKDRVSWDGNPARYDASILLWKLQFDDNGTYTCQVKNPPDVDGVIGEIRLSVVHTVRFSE
Briefly: SPR with alanine mutants.

For assay [2], the target named is T2, human Eva1 mutant with arginine at position 103 substituted with alanine (human, UniProt O60487 27-150, limits assumed).
T2 construct: also called R103A
T2 chain: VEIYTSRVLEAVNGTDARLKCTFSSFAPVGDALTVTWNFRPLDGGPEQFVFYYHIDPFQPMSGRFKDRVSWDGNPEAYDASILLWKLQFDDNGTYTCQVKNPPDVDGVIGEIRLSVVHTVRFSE
Briefly: SPR with alanine mutants.

The target in a further assay is T3, human Eva1 S96A mutant (human, UniProt O60487 27-150, limits assumed).
T3 chain: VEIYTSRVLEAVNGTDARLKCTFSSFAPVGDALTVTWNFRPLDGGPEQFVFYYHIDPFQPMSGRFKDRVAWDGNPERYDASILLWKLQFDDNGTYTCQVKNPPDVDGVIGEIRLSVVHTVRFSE
As to the kind of experiment: SPR with alanine mutants.

Assay [3] addresses T4, human Eva1 protein (human, UniProt O60487 27-150, limits assumed).
T4 construct: Soluble analyte in the SPR work and partner in the crystal; it calls it 'the antigen, that is, the Eva1 protein'; also called human-derived Eva1 protein; hEva1
T4 sequence: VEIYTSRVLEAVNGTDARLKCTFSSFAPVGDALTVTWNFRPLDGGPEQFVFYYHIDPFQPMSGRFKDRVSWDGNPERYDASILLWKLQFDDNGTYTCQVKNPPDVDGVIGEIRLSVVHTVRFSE
As to the kind of experiment: SPR (Biacore), antibody captured by anti-mouse IgG, Eva1 flowed. The source says: (§1) To select hybridomas for producing antibodies having a higher antigen affinity from the 28 hybridomas, a surface plasmon resonance assay system Biacore was used to calculate the KD value and so forth of each antibody (hereinafter also referred to as “candidate antibody”). Concretely, first, an antibody capable of capturing mouse IgG was immobilized on a dextran-coated sensor chip (CMS, manufactured by GE health care). Then, this antibody captured each candidate antibody on the sensor chip. Subsequently, the antigen, that is, the Eva1 protein was flowed. Note that, in flowing the antigen, a solution of 10 mM-Tris-HCl (pH 7.5), 150 mM-NaCl, and 3 mM-EDTA (pH 8.0) was used. Moreover, as a solution for dissociating the antigen from the candidate antibody (captured candidate-antibody resuscitation solution), a 10 mM glycine solution (pH 1.7) was used. Thus, using these solutions, the binding reaction and the dissociation reaction between each candidate antibody and the antigen were detected with Biacore, and analyzed using the attached software.
For orientation: In SPR one partner is held on a chip, and binding of the other changes the refractive index at the surface.

For another assay, the target named is T5, human Eva1 Y30A mutant (human, UniProt O60487 27-150, limits assumed).
T5 chain: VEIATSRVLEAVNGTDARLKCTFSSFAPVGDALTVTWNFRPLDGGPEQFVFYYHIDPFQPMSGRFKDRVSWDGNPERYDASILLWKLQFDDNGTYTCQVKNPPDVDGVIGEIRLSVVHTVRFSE
Briefly: SPR.

A further assay concerns the target T6, human Eva1 Y104A mutant (human, UniProt O60487 27-150, limits assumed).
T6 chain: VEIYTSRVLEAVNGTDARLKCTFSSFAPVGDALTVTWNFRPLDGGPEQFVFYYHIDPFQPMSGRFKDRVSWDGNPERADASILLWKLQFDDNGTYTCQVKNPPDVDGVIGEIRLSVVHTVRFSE
Briefly: SPR with alanine mutants.

Assay [4] deals with T4, human Eva1 protein. Briefly: SPR.
The target of assay [5] is T4, human Eva1 protein. Briefly: SPR (Biacore), as for the mouse antibodies.
Source text: as §1
Further, the binding reaction and the dissociation reaction between the B2E5-48 chimeric antibody and the antigen were detected with Biacore as in the case of the mouse antibodies.

The target in assay [6] is T7, human Eva1 mutant (R33G, V34A, V134L, I135V, E137T) (human, UniProt O60487 27-150, limits assumed).
T7 construct: Human residues replaced by the mouse ones
T7 chain: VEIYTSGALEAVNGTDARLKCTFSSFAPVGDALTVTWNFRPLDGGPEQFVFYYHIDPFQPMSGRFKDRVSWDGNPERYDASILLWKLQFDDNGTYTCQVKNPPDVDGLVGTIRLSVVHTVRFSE
As to the kind of experiment: SPR.

The next assay has as its target T8, mouse Eva1 protein (mouse, UniProt O70255 27-150, limits assumed).
T8 construct: Used in SPR; also called mouse-derived Eva1 protein; mEva1
T8 sequence: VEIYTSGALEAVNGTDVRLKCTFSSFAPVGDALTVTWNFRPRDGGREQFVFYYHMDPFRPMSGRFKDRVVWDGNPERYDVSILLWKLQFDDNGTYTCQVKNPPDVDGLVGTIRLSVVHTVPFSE
As to the kind of experiment: SPR.

The next assay concerns the target T9, human Eva1 P72R mutant (human, UniProt O60487 27-150, limits assumed).
T9 chain: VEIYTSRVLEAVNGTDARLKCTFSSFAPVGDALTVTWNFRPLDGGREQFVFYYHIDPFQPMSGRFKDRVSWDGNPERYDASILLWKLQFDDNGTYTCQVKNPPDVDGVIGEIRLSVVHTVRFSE
As to the kind of experiment: SPR.

Assay [7] has as its target T10, human Eva1 mutant (A43V, S96V, Q85R) (human, UniProt O60487 27-150, limits assumed).
T10 construct: Human residues replaced by the mouse ones
T10 chain: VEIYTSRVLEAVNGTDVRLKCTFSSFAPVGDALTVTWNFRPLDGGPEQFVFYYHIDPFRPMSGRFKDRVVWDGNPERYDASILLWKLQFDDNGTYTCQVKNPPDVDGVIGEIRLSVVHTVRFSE
As to the kind of experiment: SPR.

Assay [8] addresses T11, human Eva1 mutant (L68R, P72R) (human, UniProt O60487 27-150, limits assumed).
T11 construct: Human residues replaced by the mouse ones; also called (L68R and P72R) double mutant
T11 chain: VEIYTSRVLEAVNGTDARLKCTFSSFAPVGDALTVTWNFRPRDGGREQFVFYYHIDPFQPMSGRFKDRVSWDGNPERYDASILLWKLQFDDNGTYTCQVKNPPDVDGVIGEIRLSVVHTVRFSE
Briefly: SPR.

The target in the next assay is T12, human Eva1 L68R mutant (human, UniProt O60487 27-150, limits assumed).
T12 chain: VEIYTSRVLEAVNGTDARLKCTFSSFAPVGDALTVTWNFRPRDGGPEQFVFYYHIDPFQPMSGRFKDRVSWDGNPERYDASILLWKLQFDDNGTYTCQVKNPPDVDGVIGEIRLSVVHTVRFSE
As to the kind of experiment: SPR.

The target in another assay is T13, human Eva1 mutant (I81M) (human, UniProt O60487 27-150, limits assumed).
T13 construct: Human residue replaced by the mouse one
T13 chain: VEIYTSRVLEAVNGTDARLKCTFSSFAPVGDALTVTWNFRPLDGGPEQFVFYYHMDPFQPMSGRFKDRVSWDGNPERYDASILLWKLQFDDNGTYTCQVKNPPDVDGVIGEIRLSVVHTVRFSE
Briefly: SPR.

A word on the Kd: it is the equilibrium constant for the complex coming apart. A lower Kd goes with higher affinity. What is called koff is a measure of how fast the partners let go of each other. By kon is commonly meant the second-order rate constant of association. A high value points to faster complex formation.

B1: A5D11-10 mouse antibody (antibody, V domains shown)
VH: EVQLKESGPGLVQPSQSLSITCTVSGFSLTRYGVHWVRQSPGKGLEWLGVIWSGGSTDYNAAFISRLSISKDNSKSQVFFKMNSLQANDTAIYYCARNGYDGGYAMDYWGQGTSVTVSS
VL: DIQMTQTTSSLSASLGDRVTISCRASQDISNYLNWYQQKPDGTVKLLIYYTSRLHSGVPSRFSGSGSRIDYSLTISNLEQEDFATYFCQQSDTLPPWTFGGGTKLEIK
notes: Mouse monoclonal from a hybridoma; also called A5D11-10 antibody
On to B1, for which the “fold increase of KD against wild type human Eva1” value in assay [1] is around 25 fold. Moreover, the “fold increase of KD against wild type human Eva1” value in [2] is around 25 fold. Moreover, in the assay with human Eva1 S96A mutant, the binding result is reported as “binds”. Besides, in the assay with human Eva1 protein [3], binding was characterised by a dissociation constant (Kd) of 5.83 nM, the koff was determined as 0.00212 s⁻¹ and the kon was 364000 M⁻¹ s⁻¹. In addition, the binding result with human Eva1 Y30A mutant is reported as “no binding”.

B2: C3 mouse antibody (antibody, mouse IgG1, V domains shown)
VH: EVKLVESGGGLVQPGGSLKLSCAASGFTFSSYTMSWVRQTPEKRLEWVAYITTGAGRTYYPDTVKGRFTISRDNAKNTLYLQMSSLKSEDTAMYYCARHRGDYWGQGTSVTVSS
VL: SIVMTQTPKFLLVSAGDRVTITCKASQSVSNDVAWYQQKPGQSPKLLIYYASNRFTGVPDRFTGSGYGTDFTFTISTVQAEDLAVYFCQQDYSSPWTFGGGTKLEIK
notes: Mouse monoclonal from a hybridoma; also called C3 antibody
In the case of B2, the binding result in the assay with human Eva1 Y104A mutant is reported as “binds”. In addition, in the assay with human Eva1 protein [3], the affinity, expressed as Kd, was 9.1 nM; the koff was determined as 0.00831 s⁻¹; the kon worked out at 918000 M⁻¹ s⁻¹. Also, the “KD for human Eva1 against KD for mouse Eva1” value with human Eva1 protein [4] is around 0.1.

B3: B2E5-48 chimeric antibody (antibody, V domains shown)
VH: QVQLQQPGAELVKPGASVKLSCKASGYTFTNYWMHWVKLRPGQGFEWIGEINPTNGGTDYNEKFKRKATLTVDKSSSTAYMQLSSLTSEDSAVYYCTIYTTALDYWGQGTTLTVSS
VL: QIVLTQSPALMSASPGERVTLTCSASSSVGYMYWYQQKPGSSPKPWIYVTSNLASGVPARFSGSGSGTSYSLTISSMEAEDAATYYCQQWSSNPPTFGAGTKLELK
In the assay with human Eva1 protein [5], B3 had a dissociation constant (Kd) of 15.2 nM, an off-rate (koff) of 0.00747 s⁻¹ and an on-rate constant (kon) of 490000 M⁻¹ s⁻¹.

B4: B2E5-48 mouse antibody (antibody, mouse IgG2b, V domains shown)
VH: QVQLQQPGAELVKPGASVKLSCKASGYTFTNYWMHWVKLRPGQGFEWIGEINPTNGGTDYNEKFKRKATLTVDKSSSTAYMQLSSLTSEDSAVYYCTIYTTALDYWGQGTTLTVSS
VL: QIVLTQSPALMSASPGERVTLTCSASSSVGYMYWYQQKPGSSPKPWIYVTSNLASGVPARFSGSGSGTSYSLTISSMEAEDAATYYCQQWSSNPPTFGAGTKLELK
notes: Mouse monoclonal from a hybridoma; also called B2E5-48 antibody
In the assay with human Eva1 protein [3], B4 returned a Kd of 11.7 nM. In the assay with human Eva1 protein [3], this molecule gave a koff of 0.00808 s⁻¹. In the assay with human Eva1 protein [3], this molecule displayed an on-rate constant (kon) of 689000 M⁻¹ s⁻¹. Further, the binding result is recorded as “binds” in assay [6]; “no binding” in the assay with mouse Eva1 protein; “no binding” in the assay with human Eva1 P72R mutant; “binds” in [7]; “no binding” in assay [8]; “binds” with human Eva1 L68R mutant. Also, in the assay with human Eva1 mutant (I81M), the binding result is recorded as “binds”.

These data come from patent publication US20190256610A1 (NATIONAL UNIVERSITY CORPORATION HOKKAIDO UNIVERSITY, published 2019).
